Experimental findings from patent US10023615B2, “Efficient transport into white blood cells” (priority 2008, dated 2018) are described below.

The data set relates to leucocytes (cd11b positive cells) in inflamed hind paw. Put plainly: Immunohistochemistry and CD11b staining on paw from CFA-induced inflammation (4 h). In kind it is in vivo, C57/Bl6 mice. Particulars: 10 μg/kg i.v. one hour prior to CFA; 4 h after CFA. As to the method: FIG. 19A, FIG. 19B, and FIG. 19C: Immunohistochemistry staining on paw from CFA-induced inflammation (4 h). Upper panels represent the Hematoxylin and Eosin (H&E) staining of hindpays. From left to right: a saline-treated animal which was not treated with CFA (Complete Freund's Adjuvant), a saline-treated animal which received CFA and a XG-102-(SEQ ID NO: 233) treated animal which also received a CFA injection. After CFA treatment, muscular and epithelial layers appear to be less organized due to edema. The presence of XG-102 (SEQ ID NO:233) positive cells was detected only in animal treated with XG-102 (upper right panel). […] 19A: Magnification ×20; 19B: Magnification ×40; 19C: Magnification ×100.
FIG. 20A represents the hind paw section of a CFA treated animal stained with three different dyes. The four upper panels represent the same portion at high magnification of a distal region. Distribution of the leucocyte marker (mainly granulocytes, macrophages and monocytes) cd11b (first from left) and XG-102 (SEQ ID NO: 233, second from left) as well as the Dapi nuclear stain (3rd from left) are indicated. The upper right panel represents the merge image of cd11b and XG-102 positive stain. […]

Ends that are not written are not given here.

As to “dqsrpvqpflnIttprkprpprrrqrrkkrg (DQSRPVQPFLNLTTPRKPRPPRRRQRRKKRG; not fully specified (some residues); printed as dqsrpvqpflnIttprkprpprrrqrrkkrg) [XG-102]”, the “co-localization with cd11b positive leucocytes” value is on record as “co-localizes with a certain leucocyte population” and the “presence in leucocytes of inflamed paw (HRP staining)” value is “presence of XG-102 in infiltrating leucocytes”.
